Measurements reported in publication PMC7118173 (Nature Communications, 2020).
Changes are numbered by the printed parent chain.

How the values were obtained:
SepF [1] = assay: Western blots of whole-cell extracts (SepF depletion / expression); format: cell-based, C. glutamicum; conditions: Pino-sepF strain, 1% myo-inositol
Description: 24 homogenizer. Crude extracts (120 μg) were analyzed by SDS-PAGE, electro-transferred onto a 0.2 μm Nitrocellulose membrane and blocked with 5% (w/v) skimmed milk. Membranes were incubated with an anti-SepF antibody (produced by Covalab, Supplementary Fig. 25a), an anti-FtsZ antibody (produced by Proteogenix, Supplementary Fig. 25b) or an anti-mNeonGreen antibody (purchased from Chromotek) for 1 h at room temperature.

Pino-sepF strain [2] = assay: Growth curves / complementation of the Pino-sepF strain
Description: Positive colonies were grown in BHI media supplemented with 25 µg/ml kanamycin overnight at 30 °C and 120 rpm shaking.
All strains were plated in CGXII media plates with 4% (w/v) sucrose as a carbon source for 2 days at 30 °C and then single colonies were inoculated in 10 ml of CGXII media 4% (w/v) sucrose overnight at 30 °C and 120 rpm shaking. The next day, 20 ml of CGXII media supplemented with the appropriate repressor or inducer were inoculated with the overnight cultures to a starting OD600 of 1. OD600 measurements were taken every 1.5 h. Each growth curve represents the average of three different growth curves originally from three different single colonies. […] When required, CGXII media 4% (w/v) sucrose was supplemented with either 1% (w/v) myo-inositol, 50 ng/ml tetracycline or 1% (w/v) gluconate and 25 μg/ml kanamycin.

[3] = test system: C. glutamicum ATCC13032 whole-cell extracts; assay: SepF and FtsZ quantification by Western blot; format: cell-based, Corynebacterium glutamicum; conditions: 60 ugr loaded
[4] = biological target: the molecule itself; assay: turbidity + dynamic light scattering; SepF or SepF mutant with SUVs (POPC:POPG 8:2), 50 µM each, 100 mM KCl, 10 mM MgCl2, 25 mM Pipes pH 6.9, 25 °C
[5] = biological target: the molecule itself; assay: crystal structure; SepFΔML 10 mg/ml with FtsZCTD 5.8 mg/ml (1:5 molar ratio), 100 mM sodium acetate pH 4.6, 30% PEG 4000, 18 °C; 1.6 Å
[6] = biological target: the molecule itself; assay: crystal structure; SepF_(ΔML,Δα3) 17 mg/ml alone, 0.1 M MES pH 6, 20% PEG MME 2000, 0.2 M NaCl, 18 °C
His6-Sumo tagged SepFΔML = biological target: T1, His6-Sumo tagged SepFΔML (Corynebacterium glutamicum, UniProt Q8NNN6 63-152); assay: SPR; Biacore T200, 25 °C, 25 mM HEPES pH 8, 150 mM KCl, 0.1 mM EDTA; His6-Sumo SepF variants covalently immobilised on NTA chips (3000-4000 RU); FtsZCTD 1.56 to 400 µM injected; steady-state fit; apparent Kd; conditions: both partners purified
T1 construct: SepF (cg2363), Corynebacterium glutamicum, amino acids 63 to 152; Covalently immobilised on an NTA sensor chip; also called immobilized SepF; source: E. coli BL21 (DE3), purified (Ni-NTA, dialysed directly without SUMO protease for SPR); not shown: His6, N-terminal, kept; SUMO, N-terminal, kept
T1 sequence (looked up): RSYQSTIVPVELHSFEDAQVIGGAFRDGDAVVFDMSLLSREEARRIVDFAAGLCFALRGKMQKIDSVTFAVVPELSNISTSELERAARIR

[7] = biological target: T2, His6-Sumo tagged SepF_(ΔML,F131A) (Corynebacterium glutamicum, UniProt Q8NNN6 63-152, F131A); assay: as above; conditions: both partners purified
T2 construct: SepF (cg2363), Corynebacterium glutamicum, amino acids 63 to 152 with F131A; also called SepF_(F131A); source: E. coli BL21 (DE3), purified (Ni-NTA, dialysed directly without SUMO protease for SPR); not shown: His6, N-terminal, kept; SUMO, N-terminal, kept
T2 sequence (looked up): T1 sequence (looked up) with F69A

[8] = biological target: the molecule itself; assay: SEC + AUC; sedimentation velocity, 42,000 rpm, 20 °C, 1-2 mg/ml, 50 mM Hepes pH 7.4, 150 mM KCl, 10 mM MgCl2; size exclusion chromatography
Pino-sepF strain [9] = assay: Cell length distribution (violin plots), Pino-sepF strains; format: cell-based, Corynebacterium glutamicum
Description: For imaging, cultures of C. glutamicum were grown in BHI or minimal medium CGXII during the day, and washed and inoculated into CGXII media for overnight growth. The following day cultures were diluted to OD600 = 1 and grown to the required OD (early exponential phase) for imaging. For HADA labeling, cultures were incubated with 0.5 mM HADA for 20 min at 30 °C in the dark. Two percent agarose pads were prepared with the corresponding growth medium and cells were visualized using a Zeiss Axio Observer Z1 microscope fitted with an Orca Flash 4 V2 sCMOS camera (Hamamatsu), and a Pln-Apo 63×/1.4 oil Ph3 objective. Images were collected using Zen Blue 2.6 (Zeiss) and analyzed using the software Fiji[70] and the plugin MicrobeJ[71] to generate violin plots and fluorescent intensity heatmaps. […] The experiments were performed as biological triplicates.

WT C. glutamicum = assay: Number of ring-like structures per cell, overexpression in WT; format: cell-based, Corynebacterium glutamicum
SepF [10] = assay: SepF polymerization (turbidity) assay in the presence of SUVs; format: biochemical, C. glutamicum; conditions: SepF (or mutant) plus SUVs 50 µM each, pH 6.9, 25 °C
Description: When used, FtsZCTD was added at a final concentration of 100 μM.
Reverse phase evaporation was used to prepare small unilamellar vesicles (SUVs). A 10 mM lipid solution made of an 8:2 mixture of 1-palmitoyl-2-oleoyl phosphatidylcholine (POPC) and 1-palmitoyl-2-oleoylglycero-3-phosphoglycerol (POPG) (Avanti Polar Lipids) was prepared as described. Chloroform was removed by evaporation under vacuum conditions and the dried phospholipid film was resuspended in a mixture of diethyl ether and buffer (25 mM Hepes pH 7.4, 10 mM MgCl2 and 150 mM KCl). Diethyl ether was eliminated by reverse phase evaporation and by slowly decreasing the pressure to the vacuum. SUVs were obtained by sonication during 30 min at 4 °C. The diameter and charge of SUV were determined by measuring dynamic light scattering (DLS) and electrophoretic mobility profiles on a Zetasizer Nano instrument (Malvern Instruments).

Dynamic light scattering = format: physicochemical; conditions: protein alone
Description: Polydispersity of the samples was measured using Dyna-pro Plate Reader (Wyatt technology) equipped with an 830 nm laser and a temperature control module. The Dynamics software (version 7.9) was used to schedule data acquisition and data analysis. For each well, 20 measurements of 10 s were averaged and this operation was repeated 20 times for each condition at 25 °C. For samples containing FtsZCTD, the peptide was used at a final concentration of 100 µM. All the experiments were carried out as minimum three biological and technical replicates.

[11] = Negative stain EM of SUVs with SepF; format: biochemical; conditions: SepFΔα3 + SUVs, upon addition of FtsZCTD
[12] = Negative stain EM of SepF rings; format: physicochemical; conditions: 50 μM, 50 mM HEPES pH 7.4, 300 mM KCl, 10 mM MgCl2
Description: For all samples, 400 mesh carbon coated grids (Electron Microscopy Sciences; CF 400-Cu) were glow-discharged on an ELMO system for 30 sec at 2 mA. 5 µl samples were applied onto the grids and incubated for 30 s, the sample was blotted, washed in 3 drops of water and then stained with 2% (weight/vol) uranyl acetate. Images were recorded on a Gatan UltraScan4000 charged coupled device (CCD) camera (Gatan) on a Tecnai T12 BioTWINLaB6 electron microscope operating at a voltage of 120 kV.

Molecule: O[C@H]1[C@H](O)[C@@H](O)[C@H](O)[C@@H](O)[C@H]1O [myo-inositol, reference compound]
- SepF protein level (SepF [1]): rapid depletion of SepF
- growth of Pino-sepF (Pino-sepF strain [2]; 1% myo-inositol, after the first 6 h): growth stopped for the depleted strain

Molecule: FtsZ: C. glutamicum FtsZ (cg2366)
- band volume in whole-cell extract ([3]; ON S (over-night, sucrose)): 14.8379
- band volume in whole-cell extract ([3]; ON S+G (over-night, sucrose + gluconate)): 18.4228
- band volume in whole-cell extract ([3]; T6 S (6 h, sucrose)): 20.1825
- band volume in whole-cell extract ([3]; T6 S+G (6 h, sucrose + gluconate)): 23.8045

B1: full-length C. glutamicum SepF (recombinant) (natural protein, Corynebacterium glutamicum, UniProt Q8NNN6 1-152, looked up)
chain: MSMLKKTKEFFGLAPYEAEHEDAYYADEPRYEGTAAYAPEYRERDYGYAPEAPAPVAPSPAPRSYQSTIVPVELHSFEDAQVIGGAFRDGDAVVFDMSLLSREEARRIVDFAAGLCFALRGKMQKIDSVTFAVVPELSNISTSELERAARIR
notes: SepF (cg2363), Corynebacterium glutamicum, full length; source: E. coli BL21 (DE3), purified (Ni-NTA, SUMO protease, SEC); not shown: His6, N-terminal, cleaved; SUMO, N-terminal, cleaved
- binding result [4]: binds

B2: SepFΔα3 (domain or fragment, Corynebacterium glutamicum, UniProt Q8NNN6 1-137, looked up)
chain: MSMLKKTKEFFGLAPYEAEHEDAYYADEPRYEGTAAYAPEYRERDYGYAPEAPAPVAPSPAPRSYQSTIVPVELHSFEDAQVIGGAFRDGDAVVFDMSLLSREEARRIVDFAAGLCFALRGKMQKIDSVTFAVVPEL
notes: SepF (cg2363), Corynebacterium glutamicum, amino acids 1 to 137 (without the C-terminal helix α3); source: E. coli BL21 (DE3), purified (Ni-NTA, SUMO protease, SEC); not shown: His6, N-terminal, cleaved; SUMO, N-terminal, cleaved
- binding result [4]: binds

B3: C. glutamicum SepF C-terminal core domain (SepFΔML), tag removed (domain or fragment, Corynebacterium glutamicum, UniProt Q8NNN6 63-152, looked up)
chain: T1 sequence (looked up)
notes: Gene codon optimised and synthesised for E. coli; homodimer in the crystal; also called globular core of SepF; source: E. coli BL21 (DE3), purified (Ni-NTA, SUMO protease, SEC); not shown: His6, N-terminal, cleaved; SUMO, N-terminal, cleaved
- binding result [5]: binds

B4: SepF_(ΔML,Δα3) (domain or fragment, Corynebacterium glutamicum, UniProt Q8NNN6 63-137, looked up)
chain: RSYQSTIVPVELHSFEDAQVIGGAFRDGDAVVFDMSLLSREEARRIVDFAAGLCFALRGKMQKIDSVTFAVVPEL
notes: SepF (cg2363), Corynebacterium glutamicum, amino acids 63 to 137 (core domain without the C-terminal helix α3); Dimers associate into linear polymers in the crystals; source: E. coli BL21 (DE3), purified (Ni-NTA, SUMO protease, SEC); not shown: His6, N-terminal, cleaved; SUMO, N-terminal, cleaved
- binding result [6]: binds

B5: FtsZCTD peptide (conserved C-terminal domain of C. glutamicum FtsZ, 10 residues) (peptide)
peptide: DDLDVPSFLQ
notes: C-terminal 10 residues of FtsZ (cg2366), Corynebacterium glutamicum; the printed residues D436, P438 and F440 place the peptide at 433-442; also called FtsZ C-terminal domain peptide; source: synthetic peptide, bought: Genosphere
- Kd (His6-Sumo tagged SepFΔML): 15 µM
- Kd [7]: 340 µM

B6: C. glutamicum SepF devoid of helix α3 (construct of the SEC and AUC experiments) (domain or fragment)
chain: B4 chain with R1M
- stoichiometry N [8]: 2

B7: SepF-Scarlet: mScarlet-I fused on the C-terminal side of SepF (protein)
chain: B1 chain
modifications: left off: mScarlet-I, C-terminal, kept
- mean cell length (Pino-sepF strain [9]; 1% myo-inositol + 1% gluconate, t = 6, replicate 1, listed as PgntK_SepF_Scarlet): 5.38
- cell elongation on complementation (Pino-sepF strain [9]; PgntK, compared with control cells): cells were more elongated than control cells
- frequency of cells with n septa (ring-like structures) (WT C. glutamicum; n septa 0, replicate 1): 0.369
- frequency of cells with n septa (ring-like structures) (WT C. glutamicum; n septa 0, replicate 2): 0.283
- frequency of cells with n septa (ring-like structures) (WT C. glutamicum; n septa 0, replicate 3): 0.282
- frequency of cells with n septa (ring-like structures) (WT C. glutamicum; n septa 1, replicate 1): 0.513
- frequency of cells with n septa (ring-like structures) (WT C. glutamicum; n septa 1, replicate 2): 0.547
- frequency of cells with n septa (ring-like structures) (WT C. glutamicum; n septa 1, replicate 3): 0.565
- frequency of cells with n septa (ring-like structures) (WT C. glutamicum; n septa 2, replicate 1): 0.104
- frequency of cells with n septa (ring-like structures) (WT C. glutamicum; n septa 2, replicate 2): 0.153
- frequency of cells with n septa (ring-like structures) (WT C. glutamicum; n septa 2, replicate 3): 0.127
- frequency of cells with n septa (ring-like structures) (WT C. glutamicum; n septa 3, replicate 1): 0.014
- frequency of cells with n septa (ring-like structures) (WT C. glutamicum; n septa 3, replicate 2): 0.017
- frequency of cells with n septa (ring-like structures) (WT C. glutamicum; n septa 3, replicate 3): 0.025
- frequency of cells with n septa (ring-like structures) (WT C. glutamicum; n septa 4, replicate 1): 0
- frequency of cells with n septa (ring-like structures) (WT C. glutamicum; n septa 4, replicate 2): 0
- frequency of cells with n septa (ring-like structures) (WT C. glutamicum; n septa 4, replicate 3): 0
- frequency of cells with n septa (ring-like structures) (WT C. glutamicum; n septa 5, replicate 1): 0
- frequency of cells with n septa (ring-like structures) (WT C. glutamicum; n septa 5, replicate 2): 0
- frequency of cells with n septa (ring-like structures) (WT C. glutamicum; n septa 5, replicate 3): 0
- frequency of cells with n septa (ring-like structures) (WT C. glutamicum; n septa 6, replicate 1): 0
- frequency of cells with n septa (ring-like structures) (WT C. glutamicum; n septa 6, replicate 2): 0
- frequency of cells with n septa (ring-like structures) (WT C. glutamicum; n septa 6, replicate 3): 0
- frequency of cells with n septa (ring-like structures) (WT C. glutamicum; n septa 7, replicate 1): 0
- frequency of cells with n septa (ring-like structures) (WT C. glutamicum; n septa 7, replicate 2): 0
- frequency of cells with n septa (ring-like structures) (WT C. glutamicum; n septa 7, replicate 3): 0
- ring-like structures per cell (WT C. glutamicum; overexpression in WT background): mostly single rings at mid-cell
- complementation of SepF depletion (growth) (Pino-sepF strain [2]; SepF depletion with 1% myo-inositol, exogenous construct induced): complemented the SepF depletion strain for growth

B8: SepFΔα3: SepF amino acids 1 to 137, lacking the regulatory C-terminal helix (protein)
chain: B2 chain
modifications: left off: His6, N-terminal, cleaved | SUMO, N-terminal, cleaved
- polymerization with SUVs (turbidity) (SepF [10]): polymerization and vesicle tubulation were also seen but could only be partially reversed
- dispersity by DLS (Dynamic light scattering): monodisperse
- reversal by FtsZCTD of particle formation and vesicle tubulation [11]: only partially reversed

B9: M. tuberculosis SepFΔML (domain or fragment)
chain: EDGHPLSKITTLRPKDYSEARTIGERFRDGSPVIMDLVSMDNADAKRLVDFAAGLAFALRGSFDKVATKVFLLSPADVDVSPEERRRIAETGFYAYQ
notes: also called MtbSepFΔML
- ring diameter [12]: ~ 40 nm
